In one data set the test system is ZFP 46025 (synthetic). Description: cell_activity. Particulars: AAV9 in mouse striatum, 5 weeks, qRT-PCR.
In a further data set the test system is ZFP 45643 (synthetic). Description: cell_activity. Particulars: AAV9 in mouse striatum, 5 weeks, qRT-PCR; 70% at 12 weeks. In general terms: Quantitative PCR measures a nucleic acid by following its amplification.

“mutant Htt allele expanded CAG repeat (Q50, 48 CAGs)”: the values for the activity in the data set on ZFP 46025 (synthetic) and in the data set on ZFP 45643 (synthetic) were 74 % repression and 79 % repression, respectively.

For the origin of these results see patent US20170096460.
